The series deals with Saccharomyces cerevisiae. The series is described as follows: transcriptional activation domain activity (GFP:mCherry ratio, weighted mean of sorted bins, harmonized to initial dataset scale) (arbitrary fluorescence ratio units); higher = stronger transcriptional activation. As to conditions: beta-estradiol 1 µM; induction time 4 h. In a few lines: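 After a 1:5 dilution into SC with 1 uM beta-estradiol and 4 hours at 30 °C, yeast diploids carrying a GFP reporter and URA3-integrated barcoded tiles were sorted into 8 bins by GFP:mCherry ratio. The tiles were fused to an estradiol-inducible synthetic transcription factor. Barcodes were sequenced, tiles below 50 reads were discarded, and activation activity was taken as the read-weighted mean of bin median fluorescence, averaged across barcodes and linearly mapped onto the initial dataset scale.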
As to “FIHLMNMTQVVVLCIHRFVYGLVPLFEITTCAFWPLLVSLWHLTYLLFYAIMF”, the “transcriptional activation domain activity” value worked out at 64100.
“RTKDEMKCTSCNAPTSRVCARCKHTLYCSSEHQKKHWKQHRQACVPYGAQLVK”: the “transcriptional activation domain activity” value is 50600.
“TEETPHDLPKNTAKGRDEEDFPLDYFPVSVEYPTEENAFDPFPPQAFTPAAPS”: the “transcriptional activation domain activity” value came out at 42500.
As for “DSSEEDSEDEKPKAVQVKAIAKASSSSDSDDSSSEDDAPSKSVVAAAKKVSPS”, the “transcriptional activation domain activity” value was 22200.
The value for “LAEVILLPDLCGFCCFSMRFVVLLDLIGTLTLPVTCLYLIYLIYVMASGNGPF” was 50300.
For the sequence “MMNNNESEAENQRLLDELMNQTKVLQETLDFSLVTPTPHHNDDYKIHGSAYPG”, the “transcriptional activation domain activity” value turned out to be 47300.
For the sequence “GARRQARRPRKRESSAADGDDNDADRMDVDREEARGGREQADAGDAEDEDDEE”, the “transcriptional activation domain activity” value came out at 40000.
Take “EEAAAPAASKGQGTAAAASGRSRNRRRGAGEDGKGKAERGGEAMTSAPSPAKP”: the “transcriptional activation domain activity” value is 13400.
“ELKEGDPKVCAGKAVNEKGEVVDKDGNVIGKVDVVPGEAAFEAMKALKERLGE”: the “transcriptional activation domain activity” value was under 6570.
Turning to “MQMKMSESMSILILMLIMLELGWDVVDPCFFFTPFTPFPILPSFLPSFFFLFL”, the “transcriptional activation domain activity” value is 54500.
As for “ETAKIDIEKQSNGETDISVLRNHAPGTAPTEEENLEKNMAPLRKLIRLLLLNT”, the “transcriptional activation domain activity” value was 39100.
As for “SLRVDTSVTCCKLRSFSHIVTSYIEVLFLLKILREFLYADLFVHIWLALSLLA”, the “transcriptional activation domain activity” value amounted to 62700.
As for “MSSLYFFDLMISWLLCFLAFRGDLFYMVFFFLYHFFFLLCGFWFFFCTDIHFY”, the “transcriptional activation domain activity” value is 59900.
For the sequence “MVLHMRGHVQNKIKITLFTAFFFFVQIRSLGWILFLGFSFSALFFPIFFIFFI”, the “transcriptional activation domain activity” value was 55000.
Take “FRNGPWWCLAHYIMRAMAVFLLAMSPQVLQVHTDLVLPVKKLIRWLQWMRQDD”: the “transcriptional activation domain activity” value is 64200.
On to “AIAEYKWVHLKKGAELTLIDVYDGCTRGLSGFSLTIRAMHFDFVLLVAFLFHL”, for which the “transcriptional activation domain activity” value was determined as 50400.
Turning to “TSSPSGQNASSTSVALVVGSDEKLVKAVGEGLKSKLGIKGGGKGPRWTGKWTG”, the “transcriptional activation domain activity” value was found to be 33700.
On to “MESAKKAVESVAEGIKKVAISGDQKPAAGGKKEGGKKEKKAAKAGAEVSSGPL”, for which the “transcriptional activation domain activity” value was determined as 34300.
For the sequence “AVRLCRVTIKDITDPLPEGLRLSILLMSMDSLRLGRLYQVLDYMTIRSSLGKV”, the “transcriptional activation domain activity” value worked out at 44600.
As for “MATLDEALDNEGGKRRRSHKKSRRGCGDCRRRRVKCSEENPRCQACVRRGVQC”, the “transcriptional activation domain activity” value came out at 67400.
Consider “MFGFIVVLLFSLPFFFTSSTTLSSFYFSFTFLVHFFLSYSLNVFLSFFVWFFF”, for which the “transcriptional activation domain activity” value was 58100.
As for “MWGWNGKEIHFSFTEVFLKFLIWLVHSFLRSFLGFSNGFFLTFPLVGFFFSFL”, the “transcriptional activation domain activity” value was determined as 54800.
As to “SGGKTVLQGAFAGESGRISSGGPFGHGRGKEGQEQAIDNGRQRIARLAHGLRL”, the “transcriptional activation domain activity” value amounted to 23600.
In the case of “GLFRVAGRVLHVNRLNDDFDAGADYDLRKATPADLDPHVVASVLKSYLRTLRG”, the “transcriptional activation domain activity” value came out at 27100.
As to “GSETTQEQRNIEGTDHGSGGGGGGSGEGGGGNEGGGGGGGGGSGGGGKGGGGE”, the “transcriptional activation domain activity” value is 30000.
Take “MCKVSCLGLFGGSFFFFGFGFYLLFYSSFHFSLPGWLVWILYFFFTFFGGSLR”: the “transcriptional activation domain activity” value stood at 45900.
The value for “VRNNSENASHNNETGPIETELAQTISNEFWTAYNLGWEELMSQPDYKYLFDTQ” was 117000.
On to “VVGGQQKFGTKMVVESDKKCRLILLPRFAETGILVLVNMRTLAVKCVKFGTRG”, for which the “transcriptional activation domain activity” value came out at 19300.
With “AETKCEGATTNHMKVEKREKKKRGEKAADKSKEERRSKRKEKQRKEGKTVRNG”, the “transcriptional activation domain activity” value is 6970.
To “MGFLLLLLILVFFFVLYLFYSFLFFFSFHWACCILYDMWEKERVELYLLLLLL” belongs 42800; to “MPSFFLFFLFFFLLSQCFLVLCHVCIGLVSFSSLSFFFFFPYSTFFSPLPFFL”, 61700.
Consider “MSCLDWNVFVFFFYLSILIFRLITHHYLSVFDLFFLYPFFLFLFTFPPTSFLL”, for which the “transcriptional activation domain activity” value amounted to 49500.
The value for “PAPAPAPAPRKGRSKKPVASPSASPVLAPAPAPAIALRKGRSKKPVASPSASP” was 36100; that for “VSMARGKKTFDRETIVIALERLLAVAPLAFQKVKILLALASCHFDFLSSASAY” was 68200.
To “SRLCLVSVGECLLLLSLVWGLLLLISLYLVLFFLHCVCMSGLFLCDLFELFVT” belongs 64800.
Take “RSKAKDDDRSSDESDSKSSKSNKSKRSKHNNDSDSENGSSDEDRGSKRRKKSK”: the “transcriptional activation domain activity” value is 23000.
The value for “LKHGMMRLDFLCKFSMYGGIERDNQFVKKATGVAFPCVFVLRCLKRPVLTESE” was 55100.
As to “LVHNTLCMLDLIPLLSVRLLLMSLSICFGWYTIFVFAAGVIETVHLTIGRTFT”, the “transcriptional activation domain activity” value was found to be 33900.
The value for “TREMREKVEREREGRRRAREEKEKRGGGGGGGKGKKGRGGKGKGKAVPGAGAG” was 49400; that for “EEEEEEERPAKRQKKKLAAEEDEEEGEGEGEEEEEEEERPAKRQKKKPAAEDE” was 26900; that for “EQDSWNAQLDFFNHIFYTQLYPAYDLPKKLQEDTELETEQENQMLNQVGNINY” was 109000.
As for “RAAAVRGAAQEPQPESRGTSATPARKTAKTEGEEKPAKKRRTAGGDKANKRSK”, the “transcriptional activation domain activity” value amounted to 9380.
On to “MTGFSFLLMTFFFFLFFLFFFFISLFLLFFPLFSSHSLFFRLLAICSGLWCSG”, for which the “transcriptional activation domain activity” value stood at 60000.
As for “AYMREMCVCLRDLFEALGCNKLTTLRIMLYNDAYCLGQSPTFRIRYLMSQLEP”, the “transcriptional activation domain activity” value worked out at 49600.
Turning to “YLPYIVFPLTPQLSGPLCELYPSRGNLYDIFLHSILIMMQLPFILSVPFWLLF”, the “transcriptional activation domain activity” value was found to be 45500.
To “MAPSASAGGSGAAKPKKTRAKHACRECNSRRVKCNVTERQPCTNCAASGATCE” belongs 11700; to “PSSLVAQGQCAVAGDDVLEALAIRGIDFKLYAGILLLIALVYRLLLYIVLVFK”, 66100.
On to “MYCSLQTLLFRFFAYWQGMTFFGFLFCFHVLGSQNLFFGSCFVLLLMQLLCLF”, for which the “transcriptional activation domain activity” value was found to be 58900.
Consider “LSRAGTGGRAGTAKEAGEAAGGGEQQGEEAGGKEEAGAGAEGEAENGTGGKRN”, for which the “transcriptional activation domain activity” value was determined as 23400.
“MNLDTSPDFVHFFLGFTGGVSILDLYCLFMYTFFDMIQLQLNPFSDFFFPFSL”: the “transcriptional activation domain activity” value amounted to 62100.
As to “LLHAAGVHYGYGLLLLKCDILLRLLMFISFLLSSQFLLSVISPLLFFPSFVLM”, the “transcriptional activation domain activity” value was 54700.
In the case of “SKRREIRKTKEARREGSERRDGEADSEEKAREGKGSKRRRRGTGRRAEEAAKG”, the “transcriptional activation domain activity” value is 27400.
With “ISGQEHKDMCRILLGLIIDLPLPSGQVTSRIIRLVHALLDFLYLAQLPSQTTN”, the “transcriptional activation domain activity” value is 61400.
To “DSSSSNDSDSGADDGAARPVRRSRARRKHKHNHEHDGNGGEGDAKDKARKPSP” belongs 28400; to “ERDRKEQNGGGEGGRGGRHKKGARGAERRGHGSGSEGGGKAGANPERRTGGRG”, under 6570; to “MDKIRKGKVVVVGCGGVGSWAAVMLVRSCVQHFVVYLVCSSIYIIISGVSKIR”, 58900.
To “RGGNPSGNAGGAGRRAKKSKDRDRNKKKSKKNSGQSGDRSTSSSKNKNKKGGG” belongs under 6570.
“MTEQAPTIRTAEKDTEGPAKRRRRPALSCVECRSRKVRCDRGKPCRACTRVRS”: the “transcriptional activation domain activity” value was 26200.
In the case of “VKHTYLMVTILLLFIFITMCCIMDNVRCIVALNNPGLDLGPPNSVIGILINAC”, the “transcriptional activation domain activity” value came to 18100.
Regarding “MVYCISFCLALFESLLYSIVADTNILIHYFLFFLLLFCQFVYFLNNTFFIFLS”, the “transcriptional activation domain activity” value turned out to be 51800.
Regarding “MAFKLSTAEKVYLALRLTLLTPFHILTSLIRSFILSLSRGLPPRLFWVCAVLR”, the “transcriptional activation domain activity” value came out at 49500.
With “VQALASGDFDAGDGGRTTRPLFRKQKGASLFFVTSVCDTVCLAWTVVVHGHRQ”, the “transcriptional activation domain activity” value amounted to 20600.
The value for “VRVVQLSLSLFIARFVTALVLPFIAIVTKWLVIGRYRPGIFPLWGTYYLRWWF” was 45000; that for “MHCIVVSCSLFLWFVFCKYLIYFKNAFTDISVFLGFLFGWFLSLLFHLSIVFG” was 48500.
The value for “EKEGKRRSLQKASTSKASSKTLHFMECKVVPEQPLLRIRWSSLTHGALMLYNG” was 49300.
The value for “LKIKLLVAWLWLLDTIHTCLLCSSNWRSLIVHYGDRRALDFIPTTTALGILFT” was 34100.
Take “KMEESKKRGTKRKSALASDSEEEEEVKPKPIAKPAKPAAKAESSVHVRKGVVL”: the “transcriptional activation domain activity” value turned out to be 17700.
For the sequence “LYFLLLLSPLCIGLVSVLCCHIGFIFLFLFFLLQSYQVSYLLLFMYIRFFLCM”, the “transcriptional activation domain activity” value came to 42300.
Turning to “EGKKREEEEGRRKEGGTEEDREREPKRGDRRSRGKAGQSPEARERGTGGQGRR”, the “transcriptional activation domain activity” value is 37200.
On to “NKDGNGDGGEGKDKDEENRSGNRDGKRERGRKEDRERVAGSSGGGAKGLKRKR”, for which the “transcriptional activation domain activity” value was found to be 42600.
On to “LRELHKSSFTNSLRQWVMSGVYQLDPFVRPYLRAYAIACLRIVFHILPHLTSM”, for which the “transcriptional activation domain activity” value is 48200.
Regarding “PDVLRKGAKFFCDETVLVKLQIVTLAAKLLVLSPNNLTLILLTKYVFGLARYD”, the “transcriptional activation domain activity” value was 63000.
“MAKGGAKDKKSVEKKGADKGKGKSDEAADKGSKGKGGLKAATAVNVRHILCEK”: the “transcriptional activation domain activity” value was determined as 23500.
On to “GVCLKVGITKPKKPNSAERKTARVRLSTGRVVTAYIPGEGHNVQQHSVVLVRG”, for which the “transcriptional activation domain activity” value was 39500.
